Reference: patent publication US12583895B2, “Polypeptides for restoring endothelial function and methods of use thereof” (Vanderbilt University, priority 2019, dated 2026)
Non-standard residues stand in square brackets, D forms with d. No end group written: not given here. pS = N[C@@H](COP(=O)(O)O)C(=O)O

Experiments:
p38 MAPK γ isoform = molecular target: T1, p38 MAPK γ isoform (Homo sapiens, UniProt P53778); assay: SelectScreen kinase profiling; format: biochemical; details: NiPp 100 μM
T1 sequence (P53778 1-367): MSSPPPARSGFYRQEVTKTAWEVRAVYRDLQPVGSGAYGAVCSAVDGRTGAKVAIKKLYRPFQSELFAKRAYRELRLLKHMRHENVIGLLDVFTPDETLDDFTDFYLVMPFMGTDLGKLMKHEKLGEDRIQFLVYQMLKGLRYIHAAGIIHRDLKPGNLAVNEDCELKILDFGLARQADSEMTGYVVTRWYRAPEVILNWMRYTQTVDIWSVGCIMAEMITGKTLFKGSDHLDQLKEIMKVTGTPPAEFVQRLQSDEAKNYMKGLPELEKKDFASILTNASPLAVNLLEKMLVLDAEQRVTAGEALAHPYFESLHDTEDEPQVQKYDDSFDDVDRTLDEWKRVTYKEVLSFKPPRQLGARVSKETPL
Description: (§1) Kinase profiling. NiPp was dissolved in DMSO, screened at a single concentration of 100 μM using in vitro kinase assays (SelectScreen Kinase Profiling Service; ThermoFisher Scientific, Madison WI) including the Z'LYTE and Adapta kinase activity assays and the LanthaScreen Eu Kinase Binding Assay). Candidate interactions were predicted using STRING Version 11 (www.string-db-org) with the human database at confidence=0.7.
(§2) Since NiPp treatment was associated with decreased phosphorylation of p38 MAPK in RA, a mechanism of NiPp function can kinase inhibition. Therefore, a kinase profiling assay was performed to determine the effect of NiPp on the activity of a panel of kinases in vitro. The top two kinases inhibited by NiPp were MSK1 and p38 MAPKα. Inhibition to the p38 MAPKα isoform appeared to be specific as inhibition by NiPp to the other isoforms (β, δ, and γ) in the kinaseprofiling screen were only at 5, 3, and 3% respectively. Despite high sequence homology, the isoforms have difference in tissue expression, upstream kinase activators and downstream substrates. The p38 MAPKα isoform, initially identified as a protein that underwent phosphorylation in response to endotoxin treatment and hyperosmolarity shock, plays a role in endothelial dysfunction in that inhibition of this isoform leads to improved endothelial function in animal models of cardiovascular diseases including cardiac hypertrophy, balloon injury, salt/fat induced hypertension and in hypercholesterolemic patients. The α-isoform is also a key regulator of pro-inflammatory cytokine production and itself can be activated by IL1-β. MSK1, a downstream kinase of the p38 MAPK activation (FIG. 19), has complex cell-dependent roles in inflammatory responses. In endothelial cells, MSK1 promotes CREB activation in response to TNFα.

p38 MAPK δ isoform = molecular target: T2, p38 MAPK δ isoform (Homo sapiens, UniProt O15264); assay: SelectScreen kinase profiling; format: biochemical; details: NiPp 100 μM
T2 sequence (O15264 1-365): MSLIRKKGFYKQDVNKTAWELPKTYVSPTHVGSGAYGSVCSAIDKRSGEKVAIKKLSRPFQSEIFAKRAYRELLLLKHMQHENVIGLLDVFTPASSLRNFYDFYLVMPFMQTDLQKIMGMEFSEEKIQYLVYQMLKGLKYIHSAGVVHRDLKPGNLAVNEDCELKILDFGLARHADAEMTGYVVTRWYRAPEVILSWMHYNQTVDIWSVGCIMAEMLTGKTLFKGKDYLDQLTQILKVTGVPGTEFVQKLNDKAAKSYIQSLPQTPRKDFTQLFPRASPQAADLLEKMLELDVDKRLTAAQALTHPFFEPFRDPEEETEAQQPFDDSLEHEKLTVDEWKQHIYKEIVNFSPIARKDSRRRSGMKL
Description: as §1, §2

p38 MAPK phosphorylation = p38 MAPK phosphorylation (Western blot) in rat aorta after subfailure stretch injury; format: cell-based; details: NiPp 500 μM, 1 h, immunoblot
Description: Freshly isolated rat aorta (RA) was subjected to subfailure stretch and incubated in PL in the absence (S) or presence of NiPp (500 μM) for 1 h at room temperature. […] The percent relaxation was determined as a change to the maximal PE-induced contraction. n=5 rats; #p<0.05, two-way ANOVA. […] Quantification of relative phosphorylation to total p38MAPK level is shown. N=10. *p<0.05, in one-way ANOVA with Tukey post-test. NiPp restores endothelial dysfunction and reduced p38 MAPK phosphorylation induced by stretch injury in RA.
Vascular injury and treatment of RA. Abdominal RA was subjected to subfailure stretch to the haptic endpoint (˜200% the resting length) for 10 s and repeated twice as previously described and a segment was reserved as non-stretched control. The tissues were then cut into 1-2 mm rings and incubated for 1 h at room temperature in PL with or without NiPp (500 μM). To induce acidotic injury, thoracic RA were cut into 1-2 mm rings and pretreated in the absence or presence of NiPp (500 μM) in PL for 30 min. […]
Western blot Analysis. […] The protein-antibody complexes were visualized and quantified using the Odyssey Infrared Imaging System. Phosphorylation was calculated as a ratio of the phosphorylated protein to total protein and was then normalized to the untreated tissues (Ctrl) with the control value set as 1.0.

YARAAARQARASPAARRA(pS)AILPG (YARAAARQARASPAARRA[pS]AILPG) [NiPp, Cell-permeant phosphopeptide mimetic of Niban: transduction domain … conjugated to the region surrounding serine 602 of Niban]
% inhibition of p38 MAPK γ isoform (p38 MAPK γ isoform): 3%
% inhibition of p38 MAPK δ isoform (p38 MAPK δ isoform): 3%
p38 MAPK phosphorylation relative to total p38 MAPK after stretch injury (p38 MAPK phosphorylation): reduced
